In experiment [1] the target is T1, Zaire ebolavirus full-length GP (Zaire ebolavirus, UniProt Q05320 33-650).
T1 sequence: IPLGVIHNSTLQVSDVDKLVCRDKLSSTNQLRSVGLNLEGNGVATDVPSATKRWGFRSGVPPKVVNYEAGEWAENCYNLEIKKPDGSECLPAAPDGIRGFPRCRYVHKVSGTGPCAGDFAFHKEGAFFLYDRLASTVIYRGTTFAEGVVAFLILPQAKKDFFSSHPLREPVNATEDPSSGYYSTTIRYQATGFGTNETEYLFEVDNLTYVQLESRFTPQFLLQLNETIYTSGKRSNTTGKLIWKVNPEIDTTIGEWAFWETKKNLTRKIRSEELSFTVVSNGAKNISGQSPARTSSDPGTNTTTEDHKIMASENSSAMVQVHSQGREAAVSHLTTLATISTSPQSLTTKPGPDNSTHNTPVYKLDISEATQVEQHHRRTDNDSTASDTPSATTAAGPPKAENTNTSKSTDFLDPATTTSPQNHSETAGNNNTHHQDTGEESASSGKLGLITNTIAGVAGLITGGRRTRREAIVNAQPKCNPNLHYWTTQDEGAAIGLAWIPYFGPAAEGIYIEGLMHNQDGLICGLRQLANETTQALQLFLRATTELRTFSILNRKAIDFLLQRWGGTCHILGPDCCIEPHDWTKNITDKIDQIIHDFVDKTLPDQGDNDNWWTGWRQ
The experiment in a line: ELISA on plates coated with purified full-length Zaire ebolavirus GP, A450. (In an ELISA, binding on a coated surface is turned into a signal by an enzyme label.)

Experiment [2] has as its target T2, Zaire ebolavirus secreted GP (sGP) (Zaire ebolavirus, UniProt P60170 33-324).
T2 sequence: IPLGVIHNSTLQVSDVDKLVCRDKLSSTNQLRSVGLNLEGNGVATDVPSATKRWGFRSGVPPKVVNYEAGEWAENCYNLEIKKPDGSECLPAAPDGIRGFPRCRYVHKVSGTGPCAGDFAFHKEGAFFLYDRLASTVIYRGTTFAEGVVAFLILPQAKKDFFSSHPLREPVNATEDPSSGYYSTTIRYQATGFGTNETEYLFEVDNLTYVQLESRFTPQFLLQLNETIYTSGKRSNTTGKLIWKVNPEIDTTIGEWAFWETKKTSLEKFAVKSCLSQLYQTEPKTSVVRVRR
Nature of the experiment: ELISA on plates coated with purified Zaire ebolavirus sGP, A450.

Experiment [3] deals with T2, Zaire ebolavirus secreted GP (sGP). The experiment in a line: biolayer interferometry, pH 7.4. In general terms: In BLI a coated tip is dipped into the sample, and binding shifts an interference pattern.

3 molecules from patent publication US20210079067A1 (US Dept. of Health and Human Services, published 2021) can be followed below.

The EC50 (read off the curve) is the concentration giving half of the maximal effect. High values mean a less potent agent, low ones a more potent agent.

B1: mAb100 (antibody, V domains shown)
VH: QVQLQESGPGLVKPSDTLSLTCTVSGGSLSSFYWSWIRQPPGKGLEWIGYIYYSGSPNYSPSLESRVTMSVDTTRNQISLKLDSVTAADTAVYYCVRASRSYYWGSYRPTAFDSWGQGTLVTVSS
VL: SYELTQPLSVSVSPGQTAIFTCSGDNLGDKYVCWFQQRPGQSPMLLIYQDNKRPSGIPERFSGSNSGNTATLTISGTQSTDEADYYCQTWDSTVVFGGGTKLTVL
On to B1, for which the “EC50 (read off the curve)” value in experiment [1] is ~0.02 µg/mL.

B2: S1-4-A09 antibody (IgG1 expressed version) (antibody, V domains shown)
VH: QVQLQESGPGLVKPSETLSLTCVVSGGILSSFYWNWIRQPPGKGLEWIGNIYYSGSPNYNASFQSRVAISVDTSKNQISLNLKSVTAADTAMYYCVRASRAYLWGSYRPTALDLWGQGSLVTVSS
VL: SYELTQPPSVSVSPGQTATITCSGDKLGDKYTSWFQQRPGQSPLLVIYQDNKRPSGLPARFSGSNSGNTATLTISGTQAMDEADYLCQVWDSGAVFGGGTKLTVLG
As for B2, the “EC50 (read off the curve)” value in experiment [1] was ~0.03 µg/mL. In addition, the binding result in experiment [2] was “no binding”.

B3: S1-4-A09 Fab (Fab, V domains shown)
VH: B2 VH
VL: SYELTQPPSVSVSPGQTATITCSGDKLGDKYTSWFQQRPGQSPLLVIYQDNKRPSGLPARFSGSNSGNTATLTISGTQAMDEADYLCQVWDSGAVFGGGTKLTVL
Regarding B3, the binding result in experiment [3] is “no binding”.
